The record followed here is publication PMC13185157.

This test concerns the target GFP-LNX1. The test can be described thus: flow cytometry on cells; α-GFP-Nb yeast incubated with lysates of HEK293 cells expressing FLAG-tagged partner plus GFP-LNX1 or GFP; washed once; anti-FLAG antibody; percent of positive cells. In general terms: In flow cytometry, cells or beads pass a laser one at a time.

Chain of FLAG-ZNF24 (P17028 whole entry): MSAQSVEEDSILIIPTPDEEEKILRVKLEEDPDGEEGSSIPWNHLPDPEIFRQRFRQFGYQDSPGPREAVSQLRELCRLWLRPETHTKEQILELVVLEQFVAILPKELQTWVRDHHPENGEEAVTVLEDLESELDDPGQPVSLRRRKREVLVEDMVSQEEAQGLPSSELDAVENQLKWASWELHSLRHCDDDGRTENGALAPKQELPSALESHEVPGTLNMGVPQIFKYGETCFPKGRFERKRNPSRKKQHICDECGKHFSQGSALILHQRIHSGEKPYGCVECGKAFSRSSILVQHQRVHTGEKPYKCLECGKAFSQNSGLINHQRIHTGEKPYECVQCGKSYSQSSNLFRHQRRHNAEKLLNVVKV
Chain of FLAG-NUMB (Q9QZS3 whole entry): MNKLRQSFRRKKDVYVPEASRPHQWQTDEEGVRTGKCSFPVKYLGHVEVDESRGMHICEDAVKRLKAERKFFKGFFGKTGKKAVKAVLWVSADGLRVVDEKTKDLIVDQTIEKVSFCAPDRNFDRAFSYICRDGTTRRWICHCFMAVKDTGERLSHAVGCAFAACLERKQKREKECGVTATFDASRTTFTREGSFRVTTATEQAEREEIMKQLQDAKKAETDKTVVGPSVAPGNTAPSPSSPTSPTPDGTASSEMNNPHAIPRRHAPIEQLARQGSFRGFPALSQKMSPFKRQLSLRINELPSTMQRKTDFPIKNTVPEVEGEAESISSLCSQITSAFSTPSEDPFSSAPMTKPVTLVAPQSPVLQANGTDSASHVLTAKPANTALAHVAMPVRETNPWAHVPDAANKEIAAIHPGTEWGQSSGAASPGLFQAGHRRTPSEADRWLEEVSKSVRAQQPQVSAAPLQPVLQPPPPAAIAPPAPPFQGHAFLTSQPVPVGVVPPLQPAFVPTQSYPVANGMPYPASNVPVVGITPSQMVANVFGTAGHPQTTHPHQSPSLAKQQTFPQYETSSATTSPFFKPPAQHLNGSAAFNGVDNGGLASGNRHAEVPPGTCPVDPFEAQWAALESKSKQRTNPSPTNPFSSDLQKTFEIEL
Chain of FLAG-Liprin-α1 (Q13136 whole entry): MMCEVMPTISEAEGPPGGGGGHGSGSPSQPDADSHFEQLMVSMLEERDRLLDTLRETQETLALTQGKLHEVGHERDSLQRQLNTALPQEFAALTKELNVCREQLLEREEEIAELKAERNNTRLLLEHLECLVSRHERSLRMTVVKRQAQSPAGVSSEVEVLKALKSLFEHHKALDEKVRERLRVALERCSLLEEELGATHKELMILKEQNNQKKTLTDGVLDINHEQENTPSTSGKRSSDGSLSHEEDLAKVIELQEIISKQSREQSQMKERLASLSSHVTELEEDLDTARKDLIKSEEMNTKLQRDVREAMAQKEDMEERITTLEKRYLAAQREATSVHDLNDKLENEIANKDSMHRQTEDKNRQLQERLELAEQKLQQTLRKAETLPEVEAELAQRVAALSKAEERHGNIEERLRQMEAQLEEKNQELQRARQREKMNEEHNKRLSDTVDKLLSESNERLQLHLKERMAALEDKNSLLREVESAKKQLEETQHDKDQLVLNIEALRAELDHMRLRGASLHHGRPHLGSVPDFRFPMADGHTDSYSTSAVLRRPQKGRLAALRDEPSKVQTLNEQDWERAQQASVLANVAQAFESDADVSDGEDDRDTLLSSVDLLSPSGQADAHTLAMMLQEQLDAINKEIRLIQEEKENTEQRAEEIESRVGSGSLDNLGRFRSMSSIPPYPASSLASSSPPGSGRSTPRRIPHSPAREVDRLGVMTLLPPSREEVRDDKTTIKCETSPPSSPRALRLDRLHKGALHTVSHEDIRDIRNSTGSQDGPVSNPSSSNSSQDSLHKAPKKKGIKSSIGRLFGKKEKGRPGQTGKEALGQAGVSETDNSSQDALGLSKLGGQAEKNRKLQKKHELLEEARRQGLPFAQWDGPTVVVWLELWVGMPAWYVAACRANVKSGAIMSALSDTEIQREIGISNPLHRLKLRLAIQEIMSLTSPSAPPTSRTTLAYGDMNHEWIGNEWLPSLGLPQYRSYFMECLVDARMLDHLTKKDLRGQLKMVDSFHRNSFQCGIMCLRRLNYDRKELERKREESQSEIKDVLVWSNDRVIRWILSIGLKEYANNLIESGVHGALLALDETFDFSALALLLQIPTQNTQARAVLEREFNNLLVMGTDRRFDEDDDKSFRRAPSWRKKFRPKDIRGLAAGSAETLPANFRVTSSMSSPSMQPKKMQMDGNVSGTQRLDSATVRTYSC

“FLAG-ZNF24 (from UniProt P17028 1-368) (natural protein)”: the percent of FLAG positive cells stood at 77%.
In the case of “FLAG-NUMB (from UniProt Q9QZS3 1-653) (natural protein)”, the percent of cells positively labelled with anti-FLAG antibody turned out to be 10%.
With “FLAG-Liprin-α1 (from UniProt Q13136 1-1202) (natural protein)”, the percent of cells positively labelled with anti-FLAG antibody turned out to be 30%.
